{"source": "IntAct's records for PubMed 21224850", "parents": {"B1": {"name": "Cell division protein SepF (Bacillus subtilis), O31728 (parent)", "chain": "MSMKNKLKNFFSMEDEEYEYEYIETERESHEEHEQKEKPAYNGNKPAGKQNVVSLQSVQKSSKVVLSEPRVYAEAQEIADHLKNRRAVVVNLQRIQHDQAKRIVDFLSGTVYAIGGDIQRIGSDIFLCTPDNVDVSGTISELISEDEHQRW", "partner": "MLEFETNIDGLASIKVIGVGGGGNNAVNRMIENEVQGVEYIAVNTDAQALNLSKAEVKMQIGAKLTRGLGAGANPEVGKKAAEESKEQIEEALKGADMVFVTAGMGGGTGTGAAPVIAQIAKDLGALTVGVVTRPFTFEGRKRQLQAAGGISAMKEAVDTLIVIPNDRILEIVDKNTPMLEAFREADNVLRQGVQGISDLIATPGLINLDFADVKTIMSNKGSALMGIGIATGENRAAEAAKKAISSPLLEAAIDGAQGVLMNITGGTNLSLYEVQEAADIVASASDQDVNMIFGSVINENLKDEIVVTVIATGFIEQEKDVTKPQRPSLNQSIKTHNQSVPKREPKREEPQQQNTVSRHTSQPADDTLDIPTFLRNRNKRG"}}}
{"variants_of": "B1", "conditions": "with ftsz_bacsu ftsZ"}
{"variant": "MSMKNKLKNFFSMEDEEYEYEYIETERESHEEHEQKEKPAYNGNKPAGKQNVVSLQSVQKSSKVVLSEPRVYAEAQEIADHLKNRRAVVVNLQRIQHDQVKRIVDFLSGTVYAIGGDIQRIGSDIFLCTPDNVDVSGTISELISEDEHQRW", "note": "[A100V]", "effect of a mutation on the interaction": "disrupting interaction"}
{"variants_of": "B1", "conditions": "with ftsz_bacsu ftsZ", "remark": "another data set of the same source"}
{"variant": "MSMKNKLKNFFSMEDEEYEYEYIETERESHEEHEQKEKPAYNGNKPAGKQNVVSLQSVQKSSKVVLSEPRVYAEAQEIADHLKNRRAVVVNLQRIQHDQAKRIVDFLSGTVYAIGGDIQRIGSDISLCTPDNVDVSGTISELISEDEHQRW", "note": "[F126S]", "effect of a mutation on the interaction": "disrupting interaction"}
